Among the data in patent US20130011875A1 are relative rhGCSF titer in fermentation supernatant (GCSF ELISA), vps10-1 deletion mutant yGLY9933 against parental strain yGLY8538 and relative TNFRII-Fc titer in deep-well plate supernatant (ELISA), vps10-1 deletion mutants yGLY9992 and yGLY9993 against parental wild-type strain yGLY8292 values, retold here.

The target of assay [1] is recombinant human Met-granulocyte colony-stimulating factor (rHuMetGCSF) (Homo sapiens) (UniProt P09919). Nature of the assay: cell-based or functional assay.
Assay [2] concerns the target TNFRII-Fc (tumor necrosis factor receptor 2 ectodomain fused to Fc region of IgG1). Nature of the assay: cell-based or functional assay.

Bounds are passed on as bounds.

Sequence of TNFRII-Fc (tumor necrosis factor receptor 2 ectodomain fused to Fc region of IgG1) (chain, as listed by the source limits assumed): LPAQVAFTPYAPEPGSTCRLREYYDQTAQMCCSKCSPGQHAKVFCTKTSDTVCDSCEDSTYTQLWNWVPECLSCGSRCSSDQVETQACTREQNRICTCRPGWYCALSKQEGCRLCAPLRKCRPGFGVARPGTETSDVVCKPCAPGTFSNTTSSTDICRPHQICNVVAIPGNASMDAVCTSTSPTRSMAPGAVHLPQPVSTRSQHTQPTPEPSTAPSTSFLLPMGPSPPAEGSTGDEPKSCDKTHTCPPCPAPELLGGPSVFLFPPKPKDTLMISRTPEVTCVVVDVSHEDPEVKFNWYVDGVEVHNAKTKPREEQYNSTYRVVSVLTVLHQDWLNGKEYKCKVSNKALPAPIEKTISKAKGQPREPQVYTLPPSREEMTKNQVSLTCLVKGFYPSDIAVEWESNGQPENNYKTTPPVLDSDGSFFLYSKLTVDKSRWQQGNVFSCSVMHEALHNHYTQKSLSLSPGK

Take “Pichia pastoris vacuolar protein sorting receptor 10-1 (Vps10-1) (from UniProt C4R192 21-1542)”: in assay [1], the relative rhGCSF titer in fermentation supernatant (GCSF ELISA), vps10-1 deletion mutant yGLY9933 against parental strain yGLY8538 is > 7 fold. For the same substance, in assay [2], the relative TNFRII-Fc titer in deep-well plate supernatant (ELISA), vps10-1 deletion mutants yGLY9992 and yGLY9993 against parental wild-type strain yGLY8292 was found to be 10 fold.
